What all share (assay): MST
Experiment [1] concerns the target T1, atto-633-labeled preformed tau aggregates (UniProt P10636 1-441, atto-633 label, site not stated).
For experiment [2], the target named is T1, atto-633-labeled preformed tau …. This is another data set of the same source.
For experiment [3], the target named is preformed, sonicated Aβ aggregates (UniProt P05067 672-713).
For experiment [4], the target named is atto-633-labeled tau monomers (UniProt P10636 1-441, atto-633 label, site not stated).
Experiment [5] addresses T1, atto-633-labeled preformed tau …. This is another data set of the same source.

Read-outs that look alike come from different tables or passages of the source. Non-standard residues stand in square brackets, D forms with d. No end group written: not given here. pomalidomide = small molecule targeting Cereblon, fused after the C-terminal end; Hyp = O=C(O)[C@@H]1C[C@@H](O)CN1

T1 sequence (P10636 other isoform, or with tags, fused parts or gaps): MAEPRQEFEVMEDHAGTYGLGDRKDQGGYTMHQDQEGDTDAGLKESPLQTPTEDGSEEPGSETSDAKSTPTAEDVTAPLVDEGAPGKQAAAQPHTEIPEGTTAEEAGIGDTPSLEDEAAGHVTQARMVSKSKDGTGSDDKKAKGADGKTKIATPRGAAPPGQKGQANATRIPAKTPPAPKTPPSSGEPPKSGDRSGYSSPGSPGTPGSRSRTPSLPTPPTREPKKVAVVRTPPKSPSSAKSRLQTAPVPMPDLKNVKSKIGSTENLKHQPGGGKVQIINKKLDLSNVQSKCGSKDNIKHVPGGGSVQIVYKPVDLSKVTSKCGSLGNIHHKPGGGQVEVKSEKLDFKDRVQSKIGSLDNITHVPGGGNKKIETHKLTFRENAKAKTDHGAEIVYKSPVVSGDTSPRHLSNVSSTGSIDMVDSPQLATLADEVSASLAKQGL
Sequence of preformed, sonicated Aβ aggregates (P05067 672-713): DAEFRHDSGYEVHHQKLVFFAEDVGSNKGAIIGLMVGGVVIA
Sequence of atto-633-labeled tau monomers (P10636 other isoform, or with tags, fused parts or gaps): as the sequence (P10636 other isoform, or with tags, fused parts or gaps) above

With WQIVYKGSVWMINKGSGSALA[Hyp]YIP [HET fused to the VHL-moiety], binding in experiment [1] was characterised by a dissociation constant (Kd) of 3.3 µM.
In the case of WQIVYKGSVWMINKGSGSNLLRLTGW [HET_JAV], the Kd in experiment [2] was 2.2 µM.
Molecule GWVVIAGSKLKFFA [AbCap_19] registered a Kd in experiment [3] of 6.08 µM.
The molecule MVWGVVGSKWVFFA [AbCap_4] showed a dissociation constant (Kd) in experiment [3] of 1.55 µM.
WQIVYKGSVWMINK-pomalidomide (also: pomalidomide link chemistry not described) [HET-pomalidomide]: the Kd in experiment [4] is about 10.9 µM; in experiment [2] it was 4.8 µM.
For the molecule MVWGVVGSKLWFFA [AbCap_3], the values for the Kd in experiment [5] and in experiment [3] were 4.65 µM and 4.94 µM, respectively.
WQIVYKGSVWMINK [HET]: in experiment [1], the Kd was about 3.3 µM.

The values above are taken from patent US20230181748A1 (published 2023).
